± gives the standard error. For some assays here: Fewer inactive variants are shown than the library holds.
B1: glmS ribozyme (parent)
chain: AUAAAAGCGCCAGAACUACAGAAAUGUAGUUGACGAGGAGGAGGUUUAUCGAAUUUUCGGCGGAUGCCUCCAAA

Tests used:
Conditions in all cases: with glucosamine-6-phosphate
glucosamine-6-phosphate [1] = variants of: B1; assay: kcat; higher = faster cleavage; RNA array
Outline: (§1)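 The measurements used barcoded ribozyme variants on sequenced MiSeq chips, transcribed in situ by E. coli RNA polymerase and tracked at 37 °C with a hybridised Cy3 probe. Glucosamine-6-phosphate, 40 μM to 10 mM in HEPES/KCl/Mg(OAc)2 buffer, was flowed in while tiles were imaged over ~14 h. Baseline-normalised signals, also normalised to non-cleaving reference variants, gave per-tile medians that were fit to one- or two-exponential decays for kobs. kcat and KM resulted from weighted Michaelis–Menten fits across concentrations.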

glucosamine-6-phosphate [2] = variants of: B1; assay: self-cleavage kobs at 40 uM GlcN6P; higher = faster cleavage; RNA array
Outline: as §1

glucosamine-6-phosphate [3] = variants of: B1; assay: self-cleavage kobs at 160 uM GlcN6P; higher = faster cleavage; RNA array
Outline: as §1

glucosamine-6-phosphate [4] = variants of: B1; assay: self-cleavage kobs at 640 uM GlcN6P; higher = faster cleavage; RNA array
Outline: as §1

glucosamine-6-phosphate [5] = variants of: B1; assay: self-cleavage kobs at 2500 uM GlcN6P; higher = faster cleavage; RNA array
Outline: as §1

glucosamine-6-phosphate [6] = variants of: B1; assay: KM; higher = weaker cofactor use; RNA array
Outline: as §1

glucosamine-6-phosphate [7] = variants of: B1; assay: self-cleavage kobs at 10000 uM GlcN6P; higher = faster cleavage; RNA array
Outline: as §1

Row | Variant | kcat (glucosamine-6-phosphate [1]) [s⁻¹] | self-cleavage kobs at 40 uM GlcN6P (glucosamine-6-phosphate [2]) [s⁻¹] | self-cleavage kobs at 160 uM GlcN6P (glucosamine-6-phosphate [3]) [s⁻¹] | self-cleavage kobs at 640 uM GlcN6P (glucosamine-6-phosphate [4]) [s⁻¹] | self-cleavage kobs at 2500 uM GlcN6P (glucosamine-6-phosphate [5]) [s⁻¹] | KM (glucosamine-6-phosphate [6]) [µM] | self-cleavage kobs at 10000 uM GlcN6P (glucosamine-6-phosphate [7]) [s⁻¹]
1 | C50A C68G | 5.05e-05 ± 1.7e-05 | 2.54e-05 ± 1e-05 | 6.35e-05 ± 1.2e-05 | 8.11e-05 ± 1.6e-05 | 5.89e-05 ± 1e-05 |  | 
2 | A6C C71A | 2.27e-05 ± 4.2e-07 |  |  |  |  | 205 ± 38 | 2.19e-05 ± 1.1e-05
3 | C11A G37U | 1.35e-05 ± 3.5e-06 |  | < 1e-05 |  |  |  | 
4 | C11A G44U G59U | 0.000238 ± 5.3e-06 |  |  | 7.85e-05 ± 2.2e-05 | 0.00015 ± 4.7e-05 | 1330 ± 77 | 0.000212 ± 4e-05
5 | A14C A64G | 0.00265 ± 0.00066 | 0.000141 ± 3e-05 | 0.000434 ± 0.0002 | 0.000733 ± 0.00024 | 0.00221 ± 0.00047 | 884 ± 370 | 0.00267 ± 0.00068
6 | G41U G66U | 5.98e-05 ± 1.9e-06 |  | < 1e-05 | 3.02e-05 ± 1.5e-05 | 5.12e-05 ± 1.5e-05 | 582 ± 89 | 5.53e-05 ± 1.3e-05
7 | A15G G32C | 0.000278 ± 6.2e-05 |  |  |  | 6.16e-05 ± 1.6e-05 | 8170 ± 3300 | 0.000154 ± 2e-05
8 | A12G U45G | 0.000591 ± 1.8e-05 |  |  | 6.36e-05 ± 1.3e-05 | 0.000197 ± 4.2e-05 | 5260 ± 300 | 0.000386 ± 3.9e-05
9 | A36C C68G | 7.04e-05 ± 2.3e-05 | 3.7e-05 ± 1.3e-05 |  | 0.000107 ± 1.7e-05 | 4.55e-05 ± 1.3e-05 |  | 8.61e-05 ± 3.4e-05
10 | U47A C68U | 0.00394 ± 0.0013 | 7.13e-05 ± 1.3e-05 | 0.000161 ± 3.2e-05 | 0.00068 ± 0.00012 | 0.00129 ± 0.00025 | 3290 ± 1500 | 0.00346 ± 0.00049
11 | G38A U55G | < 1e-05 |  | < 1e-05 |  |  |  | 
12 | G32A C70G | 0.000111 ± 1.6e-05 |  | 2.97e-05 ± 1.1e-05 | 9.43e-05 ± 1.5e-05 | 6.07e-05 ± 2.4e-05 |  | 0.00011 ± 1.3e-05
13 | A14U G41U | 0.000307 ± 3.4e-05 |  | 4.48e-05 ± 7.9e-06 | 0.000109 ± 1.4e-05 | 0.000292 ± 5.4e-05 | 1010 ± 220 | 0.000271 ± 3.1e-05
14 | G38A C58U C68G | 4.92e-05 ± 1.7e-05 |  |  | 5.5e-05 ± 2.5e-05 | 6.16e-05 ± 2.5e-05 |  | 
15 | G41A U47A | 0.000635 ± 9.4e-05 | 7.36e-05 ± 1.6e-05 |  | 0.000573 ± 0.00011 | 0.000608 ± 0.00018 | 282 ± 86 | 0.00055 ± 0.0001

Source: the supplement of paper PMC7125110
